Legend:
[1] = target: CrkL SH2 domain, 9-108 (UniProt P46109); experiment: GST pull-down from infected-cell lysate, anti-Tir blot; settings: reference: WT Tir (Δtir EPEC + ptir); sites Y474
[2] = target: CrkII SH2 domain, 1-124 (UniProt Q64010); experiment: as above; settings: reference: WT Tir (Δtir EPEC + ptir); sites Y474

For “Tir (translocated intimin receptor) (from UniProt B7UM99) Tir Y474F (Δtir EPEC + ptirY474F)”, the “binding against the reference” value [1] was “lost” and the “binding against the reference” value [2] was “lost”.

— PMC3968158
